In US7666644B2, “Glyphosate-N-acetyltransferase (GAT) genes” (Verdia, Inc., priority 2004, dated 2010):

Key:
[1] = GAT activity with substrate L-serine (DTNB); type: biochemical
Procedure: (§1) GAT activity of several GAT polypeptides of the present invention was evaluated with respect to a number of amino acid substrates. The GAT polypeptide, AcCoA and amino substrate were incubated in 25 mM Hepes, pH 6.8, 10% ethylene glycol in the wells of a 96-well polystyrene plate. After 30 minutes, the reactions were stopped by the addition of 30 μl of 10 mM 5,5′-dithiobis-2-nitrobenzoate (DTNB) in 500 mM Tris, pH 7.5. After 2 minutes, absorbance was read at 412 nm in a Spectramax Plus plate reader (Molecular Devices, Sunnyvale, Calif.).

[2] = GAT activity with substrate L-aspartate (DTNB); type: biochemical
Procedure: as §1

[3] = GAT activity with other L-amino acid substrates (DTNB); type: biochemical
Procedure: as §1

[4] = type: physicochemical; details: buffer, pH 7.2
Procedure: The half lives of several GAT polypeptides were also measured at 37.5° C. according to the following procedure. GAT polypeptides 401 (SEQ ID NO: 6), 17-15H3 (SEQ ID NO: 601), 20-8H12 (SEQ ID NO: 739), 22-13B12 (SEQ ID NO: 781), 22-15B4 (SEQ ID NO: 946) and 22-18C5 (SEQ ID NO: 795) were incubated in a matrix of 25 mM Hepes, pH 7.2, 10 mM KCl and 10% methanol (“HKM”). At various timepoints, aliquots were withdrawn and assayed in triplicate at 22° C. using the continuous spectrophotometric assay described in Example 7 using saturating concentrations of glyphosate (20 mM for 401, 5 mM for the rest) and AcCoA (167 uM). The standard error at each time point averaged about 2.9%. GAT activity was plotted as a function of incubation time and the data was fitted to a curve for exponential decay (y=e^−x), where y is enzyme activity and x is time in hours, from which half life was calculated.

soybean plants = assay: T0 soybean greenhouse glyphosate spray, plant discoloration scores; type: in vivo
Procedure: Soybean plants expressing GAT variant transgenes were produced using the method of particle gun bombardment (see Klein et al. (1987) Nature 327:70-73) using a DuPont Biolistic PDS1000/He instrument. The selection agent used during the transformation process was hygromycin. Either the hygromycin selectable marker gene remained in the transgenic events or the hygromycin gene was excised by methods known in the art. DNA fragments were prepared with a synthetic constitutive promoter, a GAT variant and PinII terminator. The selectable marker gene, comprising the 35S CaMV promoter, HPT gene and NOS terminator, was cobombarded with the GAT gene variant as described above. Bombarded soybean embryogenic suspension tissue was cultured for one week in the absence of selection agent. Embryogenic suspension tissue was placed in liquid selection medium for 6 weeks. Putative transgenic suspension tissue was sampled for PCR analysis to determine the presence of the GAT gene. Putative transgenic suspension culture tissue was maintained in selection medium for 3 weeks to obtain enough tissue for plant regeneration. Suspension tissue was matured for 4 weeks using standard procedures; matured somatic embryos were desiccated for 4-7 days and then placed on germination induction medium for 2-4 weeks. Germinated plantlets were transferred to soil in cell pack trays for 3 weeks for acclimatization. Plantlets were potted to 10-inch pots in the greenhouse for evaluation of glyphosate resistance.
To determine the level of glyphosate resistance of transgenic soybeans expressing the GAT variant transgenes, T0 plants were sprayed with glyphosate (Roundup ULTRA MAX™) in the greenhouse. Plant resistance levels were evaluated by […] • 7=minor leaf/stem discoloration • 5=worse leaf/stem discoloration • 3=severely discolored plant or dying plant • 1=dead plant
One to four plants were sent to the greenhouse from each independent transgenic event. An additional 1-2 plants per event were grown in controlled environment growth chambers for seed production and were not sprayed with glyphosate. The greenhouse plants were sprayed at 1×, 2× or 4× glyphosate (1× glyphosate=26 ounces/acre of RoundUp ULTRA MAX™) 3-4 weeks after transfer to soil. The T0 plant discoloration scores with 2× and 4× spray rates are shown in Table 10 and Table 11, respectively.

B1: 401: native GAT polypeptide corresponding to SEQ ID NO: 6 (protein, listed as Bacillus licheniformis)
chain: MIEVKPINAEDTYEIRHRILRPNQPLEACMYETDLLGGAFHLGGYYRGKLISIASFHKAEHSELEGEEQYQLRGMATLEGYREQKAGSTLIRHAEELLRKKGADLLWCNARTSVSGYYEKLGFSEQGEVYDIPPIGPHILMYKKLT
modifications: ST401 GAT
**Q.** For B1, which “activity with L-serine compared with glyphosate” value [1] is on record?
**A.** The value was “about 4.7 times”.

**Q.** And the “kcat/KM % of glyph” value ([1]; Substrate Serine)?
**A.** The value was 471%.

**Q.** And the “activity with L-aspartate compared with glyphosate” value [2]?
**A.** Its value is “about as active”.

**Q.** What about the “kcat/KM % of glyph” value ([2]; Substrate Aspartate) of the same molecule?
**A.** The value was 85.5%.

**Q.** What about the “number of amino acids with detectable activity, in addition to glyphosate” value [3] of the same molecule?
**A.** The value was 12.

**Q.** And the “activity relative to activity towards glyphosate” value ([3]; L-alanine, 1 mM)?
**A.** Its value is 33%.

**Q.** And the “activity relative to activity towards glyphosate” value ([3]; L-asparagine, 1 mM)?
**A.** Its value is 27%.

**Q.** And the “activity relative to activity towards glyphosate” value ([3]; L-cysteine, 1 mM)?
**A.** Its value is 50%.

**Q.** What about the “activity relative to activity towards glyphosate” value ([3]; L-glutamate, 1 mM) of the same molecule?
**A.** The value was 51%.

**Q.** What about the “activity relative to activity towards glyphosate” value ([3]; L-glutamine, 1 mM) of the same molecule?
**A.** Its value is 32%.

**Q.** What about the “activity relative to activity towards glyphosate” value ([3]; L-histidine, 1 mM) of the same molecule?
**A.** The value was 10%.

**Q.** And the “activity relative to activity towards glyphosate” value ([3]; L-threonine, 1 mM)?
**A.** Its value is 250%.

**Q.** And the “activity relative to activity towards glyphosate” value ([3]; L-tyrosine, 1 mM)?
**A.** The value was 18%.

**Q.** And the “activity relative to activity towards glyphosate” value ([3]; L-valine, 1 mM)?
**A.** The value was 12%.

**Q.** And the “activity on N-methyl derivatives of amino acids” value ([3]; N-methyl derivatives of L-aspartate (2 mM), L-alanine (10 mM) and glycine (sarcosine, 10 mM))?
**A.** Its value is “No detectable activity”.

**Q.** And the “activity relative to activity towards glyphosate” value ([3]; glycine, 1 mM)?
**A.** Its value is 21%.

**Q.** What about the “activity relative to activity towards glyphosate” value ([3]; the other protein amino acids, either undetected or less than 3%) of the same molecule?
**A.** The value was “less than 3%”.

**Q.** What about the “Half-life” value [4] of the same molecule?
**A.** Its value is 14 h.

B2: 18-28D9c: GAT transgene, SEQ ID NO:824 (nucleic acid)
DNA: ATGATAGAGGTGAAACCGATTAACGCAGAGGATACCTATGAACTAAGGCATAGAATACTCAGACCAAACCAGCCGATAGAAGCGTGTATGTTTGAAAGCGATTTACTTCGTGGTGCATTTCACTTAGGCGGCTTTTACAGGGGCAAACTGATTTCCATAGCTTCATTCCACCAGGCCGAGCACTCGGAACTCCAAGGCCAGAAACAGTACCAGCTCCGAGGTATGGCTACCTTGGAAGGTTATCGTGAGCAGAAAGCGGGATCAACTCTAGTTAAACACGCTGAAGAAATCCTTCGTAAGAGGGGGGCGGACATGCTTTGGTGTAATGCGAGGACATCCGCCTCAGGCTACTACAAAAAGTTAGGCTTCAGCGAGCAGGGAGAGATATTTGACACGCCGCCAGTAGGACCTCACATCCTGATGTATAAAAGGATCACATAA
modifications: Synthetic nucleic acid sequence; CDS (1)...(441); 18-28D9c
**Q.** Which “% EVENTS @ 3-6” value (soybean plants; 10 days after 2X glyphosate) does the source give for B2 here?
**A.** The value was 74% (23).

**Q.** What about the “% EVENTS @ 7-8” value (soybean plants; 10 days after 2X glyphosate (1× = 26 ounces/acre)) of the same molecule?
**A.** The value was 8% (3).

**Q.** And the “% EVENTS @ 3-6” value (soybean plants; 10 days after 4X glyphosate)?
**A.** Its value is 43% (10).

**Q.** And the “% EVENTS @ 7-8” value (soybean plants; 10 days after 4X glyphosate)?
**A.** The value was 8% (2).
